{
  "source": "the supplement of paper PMC12042874",
  "note": "± gives the uncertainty stated by the source.",
  "data": [
    {"assay": "amyloid nucleation score (Sup35N fusion, yeast selection) (log enrichment); library NNK2; higher = more nucleation; inactive = no reads after selection", "procedure,_shortened": "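After 24 hours of induction with 100 μM copper sulfate, psi-negative yeast expressing peptides of 20 random codons fused to Sup35N were grown for 7 days at 30°C on medium lacking adenine and uracil. Input and output plasmid inserts were sequenced with Illumina, and sequences with under 100 input reads were discarded. Scores for nucleation are the DiMSum log enrichment of output over input reads, centred on the mode score of non-aggregating sequences.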", "values": [
      {"substance": "YGAWCERLKRFSRLVWSDGR", "amyloid nucleation score": "0.312 ± 0.54"},
      {"substance": "YGDCLRLTDSYVSIFTRVPT", "amyloid nucleation score": "0.159 ± 0.3"},
      {"substance": "YGDSWLFCYVE", "amyloid nucleation score": "-1.12 ± 0.64"},
      {"substance": "YGFASFSLYDYYLLVCSMFI", "amyloid nucleation score": "inactive"},
      {"substance": "YGFENLVSILKFVQVNSKCG", "amyloid nucleation score": "1.38 ± 0.085"},
      {"substance": "YGGDLYLIFDLLDRVILL", "amyloid nucleation score": "inactive"},
      {"substance": "YGGPGRNKGPNSCRSTATSV", "amyloid nucleation score": "1.02 ± 0.17"},
      {"substance": "YGHLRVWKIPS", "amyloid nucleation score": "0.655 ± 0.65"},
      {"substance": "YGILCAKLTAVCL", "amyloid nucleation score": "1.44 ± 0.36"},
      {"substance": "YGKADCPSLGVYMRL", "amyloid nucleation score": "2.25 ± 0.15"},
      {"substance": "YGLLGFFGMQCCHNLCMYRG", "amyloid nucleation score": "2.02 ± 0.13"},
      {"substance": "YGMKSRVECVVY", "amyloid nucleation score": "-0.949 ± 0.63"},
      {"substance": "YGMQLFC", "amyloid nucleation score": "3.95 ± 0.082"},
      {"substance": "YGSDALYWLVWVYV", "amyloid nucleation score": "-0.016 ± 0.48"},
      {"substance": "YGSLVYVPAYGEISL", "amyloid nucleation score": "-0.921 ± 0.5"},
      {"substance": "YHEIFF", "amyloid nucleation score": "-0.243 ± 0.4"},
      {"substance": "YHMGDGLDVWGRDRSG", "amyloid nucleation score": "0.901 ± 0.27"},
      {"substance": "YHVPSGTCATR", "amyloid nucleation score": "0.912 ± 0.58"},
      {"substance": "YHYDCYHLLTERKQGELVRT", "amyloid nucleation score": "-0.425 ± 0.35"},
      {"substance": "YIECFTSMQLP", "amyloid nucleation score": "-0.397 ± 0.79"},
      {"substance": "YIESIAECQSVRVGSIVDCF", "amyloid nucleation score": "-1.33 ± 0.75"},
      {"substance": "YIFLIMCRWYSATLIRKTSC", "amyloid nucleation score": "-0.584 ± 0.76"},
      {"substance": "YIGPNKFLKQFDCLINFFLT", "amyloid nucleation score": "3.08 ± 0.097"},
      {"substance": "YIGVKKNNSMAGAYGGSLAQ", "amyloid nucleation score": "inactive"},
      {"substance": "YIIGSNEFSEHETDLNGYQT", "amyloid nucleation score": "-0.938 ± 0.62"},
      {"substance": "YIIPGLKFLS", "amyloid nucleation score": "inactive"},
      {"substance": "YIKASKMPAEA", "amyloid nucleation score": "-0.216 ± 0.55"},
      {"substance": "YIKWQI", "amyloid nucleation score": "2.94 ± 0.065"},
      {"substance": "YILLFSVGICPPRSWLIYCP", "amyloid nucleation score": "4.21 ± 0.11"},
      {"substance": "YINKKLGEAKGRDLLVRLGQ", "amyloid nucleation score": "3.63 ± 0.07"},
      {"substance": "YIRLQAIQSEVERSSVPVIK", "amyloid nucleation score": "2.16 ± 0.083"},
      {"substance": "YISSKYYWSTVKCFAFNTFH", "amyloid nucleation score": "-0.594 ± 0.42"},
      {"substance": "YIVYCLFDLLTPNKMWLSPQ", "amyloid nucleation score": "-0.661 ± 0.76"},
      {"substance": "YKLAWARYGCIAVCTMLRFP", "amyloid nucleation score": "0.102 ± 1.1"},
      {"substance": "YKMILGCVVRVGYRILNCIR", "amyloid nucleation score": "0.295 ± 0.5"},
      {"substance": "YKTIIRSVMSELSGSLRQSE", "amyloid nucleation score": "1.26 ± 0.11"},
      {"substance": "YKVLTSPRFKEDPFLYGCWI", "amyloid nucleation score": "-0.353 ± 0.53"},
      {"substance": "YKWSQASTNGHARISSAQQS", "amyloid nucleation score": "2.46 ± 0.11"},
      {"substance": "YKYSCFDRG", "amyloid nucleation score": "inactive"},
      {"substance": "YLCYNALNDFD", "amyloid nucleation score": "-0.445 ± 0.41"},
      {"substance": "YLIDFRTRWIRISKA", "amyloid nucleation score": "-0.695 ± 0.61"},
      {"substance": "YLLFHYGFLN", "amyloid nucleation score": "-1.1 ± 0.63"},
      {"substance": "YLLPSVTSVTY", "amyloid nucleation score": "0.993 ± 0.29"},
      {"substance": "YLLYGWYTMLALHLALREHI", "amyloid nucleation score": "-0.098 ± 0.79"},
      {"substance": "YLNGSSTTVSYRCWAMACSN", "amyloid nucleation score": "-0.448 ± 0.76"},
      {"substance": "YLNSYNSC", "amyloid nucleation score": "-1.31 ± 1"},
      {"substance": "YLQYPYCSSKSFARDDLVKY", "amyloid nucleation score": "0.173 ± 0.79"},
      {"substance": "YLRCMRSLYSMNLCDAFNAA", "amyloid nucleation score": "inactive"},
      {"substance": "YLRDVYSSIFAPGMRYPQTR", "amyloid nucleation score": "2.22 ± 0.094"},
      {"substance": "YLSQWLSEWGVQRYVESYAR", "amyloid nucleation score": "0.445 ± 0.29"},
      {"substance": "YLVGRYETTVSTKMNKMRCW", "amyloid nucleation score": "-0.175 ± 0.53"},
      {"substance": "YLWDTEDYMRMWAKRWEKAR", "amyloid nucleation score": "0.259 ± 0.56"},
      {"substance": "YLYKLFGDDFGDWFLICFFR", "amyloid nucleation score": "inactive"},
      {"substance": "YLYSPLVMSSHYMLFT", "amyloid nucleation score": "5.125 ± 0.048"},
      {"substance": "YMASWVSSAGSFV", "amyloid nucleation score": "1.05 ± 0.29"},
      {"substance": "YMFAIHELNGEIIGPFTVNP", "amyloid nucleation score": "inactive"},
      {"substance": "YMKVGFARWMGRPG", "amyloid nucleation score": "3.89 ± 0.06"},
      {"substance": "YMMMIDL", "amyloid nucleation score": "-1.26 ± 0.64"},
      {"substance": "YMNSSLARISPRGSRCERQ", "amyloid nucleation score": "0.162 ± 0.38"},
      {"substance": "YMTWQFITACMLTCSKSILS", "amyloid nucleation score": "0.264 ± 0.49"},
      {"substance": "YMVEV", "amyloid nucleation score": "0.171 ± 0.34"},
      {"substance": "YMYLVVCLIVSHDPVSVVEW", "amyloid nucleation score": "inactive"},
      {"substance": "YNCCVKISVSM", "amyloid nucleation score": "5.481 ± 0.042"},
      {"substance": "YNDSDFWGRVWSTHAPCKAT", "amyloid nucleation score": "-0.134 ± 1.1"},
      {"substance": "YNIHYMNVLIGALHL", "amyloid nucleation score": "8.327 ± 0.056"},
      {"substance": "YNSTR", "amyloid nucleation score": "-0.082 ± 0.63"},
      {"substance": "YNSVELYFACLFLAHAVLVY", "amyloid nucleation score": "inactive"},
      {"substance": "YNSVFLRNLRSVGWTKAPLW", "amyloid nucleation score": "-0.387 ± 0.76"},
      {"substance": "YNVDVFWYGLKFNDLVVVHF", "amyloid nucleation score": "3.73 ± 0.13"},
      {"substance": "YNVQFTSEIVSE", "amyloid nucleation score": "0.001 ± 0.35"},
      {"substance": "YPCPAVVCSYAA", "amyloid nucleation score": "0.705 ± 0.44"},
      {"substance": "YPKFYIWYYVYRLLALTCVY", "amyloid nucleation score": "-1.03 ± 0.37"},
      {"substance": "YPLCARILLNKDLWDGYLNS", "amyloid nucleation score": "inactive"},
      {"substance": "YPNSLYFRPYAFILTEMSHH", "amyloid nucleation score": "inactive"},
      {"substance": "YPPIISRLQY", "amyloid nucleation score": "inactive"},
      {"substance": "YPYSSWRGSVHCELGINGMG", "amyloid nucleation score": "0.29 ± 0.77"},
      {"substance": "YQGMFKFRRFDNVSVVHAMR", "amyloid nucleation score": "-0.359 ± 0.76"},
      {"substance": "YRCFGERIFLHAHRE", "amyloid nucleation score": "inactive"},
      {"substance": "YRCLYGRKYVFRIEPIGIVH", "amyloid nucleation score": "-0.676 ± 0.35"},
      {"substance": "YRFRAIVNIYRCDVGFF", "amyloid nucleation score": "6.36 ± 0.075"},
      {"substance": "YRFYSLRMYKFWWLTLTLCL", "amyloid nucleation score": "-1.12 ± 1.1"},
      {"substance": "YRHDVWLEE", "amyloid nucleation score": "0.016 ± 0.23"},
      {"substance": "YRISMTAWSGRLSG", "amyloid nucleation score": "4.03 ± 0.043"},
      {"substance": "YRLFWFNC", "amyloid nucleation score": "1.74 ± 0.11"},
      {"substance": "YRLRMIFSMGMNNYVARWFH", "amyloid nucleation score": "-1.5 ± 1.1"},
      {"substance": "YRRCSRGNPGCDLAGFGRVV", "amyloid nucleation score": "-0.08 ± 0.74"}
    ]}
  ]
}
